# Results from the DeepSol protein solubility set.
# Assay: soluble on expression in E. coli; label from the status in PepcDB or PDB records
row,Sequence,soluble on expression in E. coli
1,ILGPHHLDEYVRVWAEYDPAACGRIHYKDMYSLLRVISPPLGLGKKCPHRVACKRLLRMDLPVADDNTVHFNSTLMALIRTALDIKIAKGGADKQQMDAELRKEMMAIWPNLSQKTLDLLVTPHKSTDLTVGKIYAAMMIMEYYRQSKAKKLQAMREEQDRTPLMFQRMEPPSPTQEGGPGQNALPSTQLDPGGALMAHESGLKESPSWVTQRAQEMFQKTGTWSPE,not soluble
2,LARSMACNSETLSELSFALTVGQKANDCDWFVGNSLIVRLLDMTGELNQKNVYTNRGASGIDGLVATAVGVQLANDKPLLALVGDTSLLYDLNSLALLKQATQPMVVVVMNNDGGGIFDLLPVNEKKKDDFYRMPHQLEFSHAAAMFGLSYHRPETLSCAMSMINDGLEKGIHLIEINTPAGQSGEELTRLFQTIQHAALF,not soluble
3,MKQRPKEYYEQLEELQAVDFTLVELTLYLDTHPTDYQAIQQFNQLAQKRKQLKKQFEAAYGPLEQFGHSYSNYPWNWDDTPWPWQV,not soluble
4,SLGNGMNKILPGLYIGNFKDARDAEQLSKNKVTHILSVHDSARPMLEGVKYLCIPAADSPSQNLTRHFKESIKFIHECRLRGESCLVHCLAGVSRSVTLVIAYIMTVTDFGWEDALHTVRAGRSCANPNVGFQRQLQEFEKHEVHQ,not soluble
5,MAHHHHHHMQPKMTAPLTMKDNNKCLSVRVGSTLEIHLEGNPTTGYTWTRVGFVGKEMLSDEHLEVTSKYTPKPVSGSMVGAGGSYTVFVKPLRKGQHAVQLVYARPFEGPKPDNERYTLHLNVE,soluble
6,MLRVGPLTIGTLDDWAPSTGSTVSWRPSAVAHTKASQAPISDVPVSYMQAQHIRGYCEQKAKGLDYSRLMVVSCQQPGQCDIRAANYVINAHLRRHDTYRSWFQYNGNGQIIRRTIQDPADIEFVPVHHGELTLPQIREIVQNTPDPLQWGCFRFGIVQGCDHFTFFASVDHVHVDAMIVGVTLMEFHLMYAALVGGHAPLELPPAGSYDDFCRRQHTFSSTLTVESPQVRAWTKFAEGTNGSFPDFPLPLGDPSKPSDADIVTVMMLDEEQTAQFESVCTAAGARFIGGVLACCGLAEHELTGTTTYYGLTPRDTRRTPADAMTQGWFTGLIPITVPIAGSAFGDAARAAQTSFDSGVKLAEVPYDRVVELSSTLTMPRPNFPVVNFLDAGAAPLSVLLTAELTGTNIGVYSDGRYSYQLSIYVIRVEQGTAVAVMFPDNPIARESVARYLATLKSVFQRVAESGQQQNVA,not soluble
7,MGSDKIHHHHHHMNIFQQLEHSKAPAAVRLVMVIDYIAKRDEASFTEICTDLSIPKSSVHHLLEVLVVTQLLRQRADGRYVLGLRLFELGGLVIKNIDLRKDTINFMHELVKETELTCHLGIMDGDNGFFLSKVESPKAIVKTSWEGKKIVFNRMSLGKVLVAWLPQERIESLIADCSFEYLTPRTITNKDDFLQHLKTVKEQGWAIDDGEDIEEICCMAAPIFNQNGDVIAAIGVNGMQSQYANGKKEKHLASLIKTSKAITAHINSRNIDIR,not soluble
8,MGHHHHHHSHMEKCSVGGLELTEQTPALLGNMAMATSLMDIGDSFGHPACPLVSRSRNSPVEDDDDDDDVVFIESIQPPSISAPAIADQRNFIFASSKNEKPQGNYSVIPPSSRDLASQKGNISETIVIDDEEDIETNGGAEKKSSCFIEWGLPGTKNKTNDLDFSTSSLSRSKVNAGMGNSGITTELTLKYIITNVTTLETGISSVNAGQDVNIIITYKTSL,not soluble
9,MQLPVMPPVSPMLAKSVTAIPPDASYEPKWDGFRSICFRDGDQVELGSRNERPMTRYFPELVAAIRAELPHRCVIDGEIIIATDHGLDFEALQQRIHPAESRVRMLADRTPASFIAFDLLALGDDDYTGRPFSERRAALVDAVTGSGADADLSIHVTPATTDMATAQRWFSEFEGAGLDGVIAKPPHITYQPDKRVMFKIKHLRTADCVVAGYRVHKSGSDAIGSLLLGLYQEDGQLASVGVIGAFPMAERRRLLTELQPLVTSFDDHPWNWAAHVAGQRTPRKNEFSRWNVGKDLSFVPLRPERVVEVRYDRMEGARFRHTAQFNRWRPDRDPRSCSYAQLERPLTVSLSDIVPGLR,not soluble
10,MVHSNGAITSTILKARHADVVRKTSLHHANDLTLIDLVLNVQRLLALPSDANFVLKYKDEEGDLVTLAEDSDLLLALHTSGATLDVTVVVDSRAREAVHDVQKQVEQIKLDVGKLLGALSALDVAQIAEQSNTSVANLSAPKQSHHDNIVFQKSFEAAPPSPVPSEKAELPATIQPSVHEQFNHRPAHVEEEIPLENHYAPPPHQQIPDDLNTSFSSQPPPPIEQFGAIPPPNATIPSFPTSNAASPPVQEFAPPPPQQQQQQFQAPPPPMASHSSISSTPVQQQGFAPPQQFGGPPPSGPPSEYGGYAPPQQQQQQFGAPPPQGAPQQGFGAPPQGPPQGGPPQGSFGAPPPQQFHAPSPQSFGGPPPPVSSAPGNFAPPPQSGPPGAFAPPPSAFGAPQGPGGPGGYGPPPPGGPGAPGSYGPPQGGPGGFGPPPPGGPGAYGPPPTGFPPVGAPPPGAAGAPGGNPFARGPSATGYRQSPYQQ,not soluble
11,MRGSHHHHHHTDPALRAIVISRHVAIPDGELEITAIRAQGAGGQHVNKTSTAIHLRFDIRASSLPEYYKERLLAASHHLISSDGVIVIKAQEYRSQELNREAALARLVAMIKELTTEKKARRPTRPTRASKERRLASKAQKSSVKAMRGKVRSGREGLCGR,soluble
12,MSLVTNKLGRDIPQPYADQYGVFEGELANIKQYDESSRRIKPVKPGDSKLLGSVREAIEKTGLTDGMTISFHHHFREGDFIMNMVLEEIAKMGIKNLSIAPSSIANVHEPLIDHIKNGVVTNITSSGLRDKVGAAISEGLMENPVVIRSHGGRARAIASGDIHIDVAFLGAPSSDAYGNVNGTKGKATCGSLGYAMIDAKYADQVVILTDNLVPYPNTPISIPQTDVDYVVTVDAIGDPQGIAKGATRFTKNPKELLIAEYAAKVITNSPYFKEGFSFQTGTGGASLAVTRFMREAMIKENIKASFALGGITNAMVELLEEELVEKILDVQDFDHPSAVSLGKHAEHYEIDANMYASPLSKGAVINQLDTCILSALEVDTNFNVNVMTGSDGVIRGASGGHCDTAFAAKMSLVISPLIRGRIPTFVDEVNTVITPGTSVDVIVTEVGIAINPNRQDLVDHFKSLNVPQFSIEELKEKAYAIVGTPERIQYGDKVVALIEYRDGSLMDVVYNVEGHHHHHH,soluble
13,MGSDKIHHHHHHMIKRRYMRTRQLKPGMIIDQVIKDPTGRNLVVQGSAIDDYIISSLLKLGIMSVYIREGNADPDDPDAILSPKAAAMVKQLRTDDRSKVTLSDSVRQRVSTGVQYIFNNTNSEELTQATNQIADSLMEAINENDAIAVDISSLKTSDEYTFKHSVDVATISMILAKQMKLPDNEIHDIGVSGLLHDIGKTMIPNEILNKPGRLTDDEFNIMKKHSVYGYNMLKDRKDLNNSILMGVLQHHERIDGTGYPLGFDAPKICQFAKILSVADVYDALVTKRPYKDALSQRDAVEMLMSMTNQLDIGVMRAFMSSMILYPVDSIVQLSNGEKARVVKNSEYYILRPTVVGVDSGRVYNLGNDLKCASIIIL,not soluble
14,KQLLTLKIKCSNQPERQILEKQLPDSMTVQKVKGLLSRLLKVPVSELLLSYESSKMPGREIELENDLQPLQFYSVENGDCLLVR,soluble
15,MGSDKIHHHHHHMIQNTFNIAGGVARNPLVRLAAPITATISAGEHIAIVGPNGGGKSLFVDTLIGKYPLREGTLQYDFSPAATQTVYDNVKYIAFRDTYGAADANYYYQQRWNAHDQDEAPDVREMLGEIKDEQLKQELFELFRIEPMLDKKIILLSSGELRKFQLVKTLLTAPRVLIMDNPFIGLDAPTRELLFSLLDRLTKMSSVQIILVLSMLDDIPSFITHVIPVDKMTVYPKMEREAYLEAFRSRDAAVSFDELQQRIVNLPYDGNNYDSDEVVKLNKVSIRYDDRTILKDLDWTVRRGEKWALSGENGAGKSTLLSLVCADNPQSYACDISLFGRKRGTGESIWEIKKHIGYVSPEMHRAYLKNLPAIEIVASGLHDSIGLYKRPQPEQMAICEWWMDIFGIAELKDNPFLQLSSGEQRLALLARAFVKDPELLILDEPLHGLDTYNRRRVKKIIEAFCHRKDKTMIMVTHYESELPGTITDRIFLKRNR,not soluble
16,MGSDKIHHHHHHMVNEQRVLDTFLELVQIDSESKEEAQICAHLKETFTALGCDVFEDDASSKTEHKGNNLIITLPATKDGVDKIYFTSHMDTVFPGQGIKPIIEDGYVKTDGTTILGADDKTGLASLIELVHVLNETNQPHGKIQFVITVGEESGLVGAMVLDPSKIDADYGFALDSDGKVGDIITAAPTQAKVNAKIYGKTAHAGVAPEKGISAITIAAKAIAKMPLGRIDEETTANIGRFSGGGPSTNIVCDYVEIFAEARSLVAPKMEAQTAKMKAAFEEVAAEFGGRAEVEVKVMYPGFKFEDGDQVVEVAKAAITQLGRTPRLLHSGGGSDANVIAGFGIPTVNLAVGYEDIHTTNEKMPIEELVKTAELCVTLVDYITNK,not soluble
17,MAHHHHHHMQQENRHLSSADLFKKFTLQNVAQIANISNKEQSQIRGELTEQYPLLADFWEDIMPKKADIMLVRCHDQVHCVTLVSSQPEVLFFRHHNSPYIPHLKLLHKYPFILPRQQVDIGGCKYVVSGANVMCPGLTSEGGYITPGLAAGAIVAIHVEQKEHAIAVGRMLMSSEEIERVNNGPGIENIHHLGDGLWMNRVLSSSHIGAR,soluble
18,MKSIHYTKAVSGTERMTFGSNDEWERIVEEMLEFEKICIPFHSTSHSPDILFKLHGRTNEKNLMIVGIACKGRWSRNGIRWNEILEEAHKFLKPVHDQVLTSHPTWHCMLIIMSTQLATNVSEDLNHSSRCYSFGDSVGDFVIPHNCELVILSEADVENFIGKDILSNLRNAFKAVDNPHSRNIGISTLQKIVLLLSKNI,not soluble
19,MGSDKIHHHHHHMKIAQIAPLTESVPPKLYGGTERVVSYITEALVDLGHDVTLFASGDSVTNAKLEAVWPRALRLDPGIRDRVAPHMLLMELVRRQAENFDVLHFHLDYYSFSVFKRQETPFVTTMHGRLDLPEQQPVFDTFNTAPVISISNAQRHPLPQARWLTTVYHGLPEQLYTPQPVEQKYLAFLGRISPEKRVDTAIRIAGRCGMPIRIAAKVDAADREYFERDIRPLLDLPYVEFIGEIADHQKAEFLSGAHALLFPIDWPEPFGLVMIEAMACGTPVIAFNRGSVPEVLEDGVTGFIVEDEIGAVAAVNRLHKMPRAGVRQRFEERFTSHRMAQQYVNAYQSVIRAQKRSRFKVIDTSGS,not soluble
20,MYQVITMYGDNEPWWFFDDWQEDIVQEKTFDNLTDAETYYVEVWQKLSQNYTYVNTKPNYLTAFWNDGEERWCEECDEDLQQYFGLALLENHHAVTFENKAEFTTISNHFGKTKFCKRKVILEHHHHHH,soluble
21,EERNDWHFNIGAMYEIENVEGYGEDMDGLAEPSVYFNAANGPWRIALAYYQEGPVDYSAGKRGTWFDRPELEVHYQFLENDDFSFGLTGGFRNYGYHYVDEPGKDTANMQRWKIAPDWDVKLTDDLRFNGWLSMYKFANDLNTTGYADTRVETETGLQYTFNETVALRVNYYLERGFNMDDSRNNGEFSTQEIRAYLPLTLGNHSVTPYTRIGLDRWSNWDWQDDIEREGHDFNRVGLFYGYDFQNGLSVSLEYAFEWQDHDEGDSDKFHYAGVGVNYSFHHHHHH,soluble
